Measured values as given in US20250154238A1, “METHODS AND COMPOSITIONS FOR TREATING AND PREVENTING FIBROSIS” (YALE UNIVERSITY, priority 2022, published 2025).

Assays:
[1] = molecular target: recombinant human epiregulin containing the epidermal growth factor (EGF) domain (R&D Biosciences Cat #1195-EP) (human) (UniProt O14944); test: cell-based or functional assay
[2] = molecular target: recombinant mouse epiregulin (mouse) (UniProt Q61521)
recombinant mouse epiregulin (mouse), sequence (Q61521 56-101 limits assumed): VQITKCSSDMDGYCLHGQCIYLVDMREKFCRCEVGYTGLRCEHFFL

recombinant human epiregulin containing the epidermal growth factor (EGF) domain (R&D Biosciences Cat #1195-EP) (human), sequence (O14944 63-108 limits assumed): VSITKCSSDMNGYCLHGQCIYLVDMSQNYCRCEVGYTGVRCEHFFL

rat anti-human/mouse neutralizing epiregulin antibody (R&D Systems MAB1068, clone 189611)
IC50 of inhibition of epiregulin-induced HFF proliferation (rhEreg 100 ng/ml) [1]: 0.16 µg/mL
IC50 of inhibition of HFF proliferation induced by 100 ng/ml rmEreg (GFP fluorescence) [2]: 0.1 µg/mL
